Source: US20240240209A1, “SYNTHESIS OF ENANTIOPURE CIS-A-IRONE FROM A RENEWABLE CARBON SOURCE” (Agency for Science, Technology and Research, priority 2021, published 2024)
Positions count from the first letter of the chain named. In names and notes the source's numbering stands.

B1: pMT7: pMT1 with Y200F S182E L273V L180A A202L Y65F (protein)
chain: MPQEARTPQQQVTADEVGDWYDKFGEVYHLTLGESVHCGLWFPPDAPVPQDMELVTMSSQAQDRFTDYLIETLDPKAGQHLLDIGCGTGRTALKAARQRGIAVTGVAVSKEQIAAANRLAAGHGLTERLTFEVADAMRLPYEDESFDCAWAIESLCHMDRAKALGEAWRVLKPGGDLLVAEEVVTEELTEPETALFETLFALNVPPRLGEFFDIVSGAGFHTLSLKDLSANLAMTMNVFALGVYSRRAEFTERFGAEFVDGLLAGLGSAQETVIRKTRFFMATLRKPAV
modifications: Modified from pMT1
notes: pMT1 with Y200F S182E L273V L180A A202L Y65F
B2: pMT10: pMT1 with Y200F S182E L273V L180A A202L Y65F C156A T91P (protein)
chain: B1 chain with T91P, C156A
modifications: Modified from pMT1
notes: pMT1 with Y200F S182E L273V L180A A202L Y65F C156A T91P

Assay: In vivo cis-α-irone production from glucose/glycerol in strain 2O31 cultures
Assay type: cell-based, Escherichia coli
Conditions: pMT plasmid transformed into strain 2O31; 2 days
From the text: The advantage of in vivo biotransformation is that microbial cells can regenerate expensive co-factors rendering the scale-up bioprocess more cost-effective. […] Thus, pMT was incorporated into our psi-ionone producing microbe^7,8, to synthesize cis-α-irone from cheap renewable carbon sources (glucose/glycerol) (FIG. 4 and FIG. 19). To achieve high productivity, the psi-ionone production was first optimized by multidimensional heuristic process (MHP)^15, and strain 2O31 was identified to be the highest producer for psi-ionone (FIG. 19b). 2O31 was used as the base strain to probe cis-α-irone production in vivo (Table 5). Moreover, to improve the plasmid stability, auxotrophic strain was used with chemically defined media^1. The plasmid carrying pMT1, pMT7 or pMT10 was transformed into the strain 2O31, and produced less than 0.01, about 2 and about 3 mg/L cis-α-irone respectively in 2 days (FIG. 19d). To further optimize irone production with pMT10, three different culture conditions were tested: no methionine or dodecane added (control); 10 mM methionine added; 10 mM methionine and 20% dodecane added. In the control reaction, approximately 4.8 mg/L or 0.85 mg/L/OD cis-α-irone was produced after 3-day incubation (2O31-pMT10, FIGS. 4c and 4e). […] Lastly, when both methionine and dodecane were added, psi-ionone was accumulated in the organic layer and only ˜0.3 mg/L or ˜0.05 mg/L/OD cis-α-irone was produced (2O31-pMT10, FIGS. 4c, d and e). […] The limited methylation efficiency might be due to insufficient cofactor or SAH inhibition. […] In fact, the total amount of psi-ionone and cis-α-irone decreased (FIG. 4c, and d). As SAM biosynthesis is regulated by metJ in E. coli^16,17, the aforementioned six reactions were subsequently examined under metJ deleted genetic background (2O31, ΔmetJ). An increase in cis-α-irone titer to ˜5.7 mg/L was produced by 2O31 ΔmetJ-pMT10 strain with 10 mM methionine supplementation (FIG. 4c). An increase in specific cis-α-irone titer to ˜1.2 mg/L/OD was produced by 2O31 ΔmetJ-pMT10r strain without methionine supplementation (FIG. 4d). […]

Row | Molecule | cis-α-irone produced
1 | B1 | about 2 mg/L
2 | B2 | about 3 mg/L
